Where a chain is given by its changes, count along the chain named.
B1: hit J (IgG) (antibody, V domains shown)
VH: QVQLVQSGAEVKKPGSSVKVSCKASGPRFQDLSISWVRQAPGQGLEWMGGIIPIYGTANYAQKFQGRVTITADESTSTAYMELSSLRSEDTAVYYCVKDLTWTNLGLDIWGQGTMVTVSS
VL: EIVMTQSPSSLSASVGDTVTITCRASQGVSRWLAWYQQKPGKAPRLLIYAASSLHSGVPSRFSGSGSGTHFTLTISSLQPEDFATYFCQQSYSTPFTFGPGTKLEIK
notes: IgG: VH and VL cloned into pFUSEss-CHIg-hG1 (human IgG1 heavy) and pFUSE2ss-CLIg-hk (human kappa), made in 293F cells; also called parental clone "J"
B2: IgG NGS-1 (CDR shuffling) (antibody, V domains shown)
VH: B1 VH with P27F, R28Q, Q30R, D31T, L32S, S33L, I51L, Y55F
VL: EIVMTQSPSSLSASVGDTVTITCRASQGVSRWLAWYQQKPGKAPRLLIYSAASSLYSGVPSRFSGSGSGTHFTLTISSLQPEDFATYFCQQSYSTPFTFGPGTKLEIK
notes: IgG: human IgG1 / kappa from pFUSE vectors, made in 293F cells
B3: hit 21169 (IgG) (antibody, V domains shown)
VH: B1 VH with P27F, R28Q, Q30R, D31T, L32S, S33L, I51L, Y55F
VL: B1 VL with S52Q, S53G, H55S
notes: as for B2
B4: hit 21341 (LA01) (IgG) (antibody, V domains shown)
VH: B1 VH
VL: B1 VL with A50S, S52R, S53A
notes: IgG: human IgG1 / kappa from pFUSE vectors, made in 293F cells; also called ACVR2A Ab LA01
B5: hit 21366 (IgG) (antibody, V domains shown)
VH: B1 VH
VL: B1 VL with A50W, S52A, S53H, H55Q
notes: as for B2
B6: IgG 6401 (CDR shuffling) (antibody, V domains shown)
VH: B1 VH
VL: B1 VL with V29P, A50S, S52R, S53A
notes: as for B2
B7: IgG 3352 (CDR shuffling) (antibody, V domains shown)
VH: B1 VH with P27F, R28Q, Q30R, D31T, L32S, S33L, I51L, Y55F
VL: B1 VL with V29P, S52Q, S53G, H55S
notes: as for B2
B8: hit 21155 (IgG) (antibody, V domains shown)
VH: B1 VH with P27F, R28Q, Q30R, D31T, L32S, S33L, I51L, Y55F
VL: B1 VL with A50G, S53P, H55S
notes: as for B2
B9: hit 275 (IgG) (antibody, V domains shown)
VH: B1 VH with P27F, R28Q, Q30R, D31T, L32S, S33L, I51L, Y55F
VL: B1 VL with V29P
notes: as for B2
B10: hit 21343 (IgG) (antibody, V domains shown)
VH: B1 VH
VL: B1 VL with A50N, S52R, H55F
notes: as for B2
B11: clone F (Fab) (Fab, V domains shown)
VH: B1 VH with P27R, R28E, Q30E, D31S, S33F, I51L, Y55F
VL: B1 VL with G28S, V29I, S30G, Q90E, T94N, F96Y
notes: Fab made in E. coli TG1 and purified on Ni-NTA
B12: clone D (Fab) (Fab, V domains shown)
VH: QVQLVQSGAEVKKPGSSVKVSCKASGQFYHSRISWVRQAPGQGLEWMGGLIPIFGTANYAQKFQGRVTITADESTSTAYMELSSLRSEDTAVYYCVKDLTWTNLGLDIWGQGTMVTVSS
VL: B1 VL with G28S, V29I, S30G, Q90E, T94N, F96Y
notes: as for B11
B13: clone E (Fab) (Fab, V domains shown)
VH: B1 VH with P27F, R28Q, Q30R, D31T, L32S, S33L, I51L, Y55F
VL: B1 VL with G28S, V29I, S30G, Q90E, T94N, F96Y
notes: as for B11
B14: clone K (Fab) (Fab, V domains shown)
VH: B1 VH with P27M, R28P, D31Q, L32S, S33Q
VL: B1 VL
notes: as for B11
B15: clone B (Fab) (Fab, V domains shown)
VH: B1 VH with P27F, R28Q, Q30R, D31T, L32S, S33L
VL: B1 VL
notes: as for B11
B16: clone C (Fab) (Fab, V domains shown)
VH: B1 VH with P27R, R28E, Q30E, D31S, S33F
VL: B1 VL
notes: as for B11
B17: clone H (Fab) (Fab, V domains shown)
VH: B1 VH with P27L, R28G, Q30H, D31N, L32F, S33Q
VL: B1 VL
notes: as for B11
B18: clone G (Fab) (Fab, V domains shown)
VH: B1 VH with P27R, R28H, Q30G, D31S, S33Q
VL: B1 VL
notes: as for B11
B19: clone I (Fab) (Fab, V domains shown)
VH: B1 VH with P27E, R28S, Q30E, D31H, L32F, S33Q
VL: B1 VL
notes: as for B11
B20: 366 (antibody, V domains shown)
VH: B1 VH with P27F, R28Q, Q30R, D31T, L32S, S33L, I51L, Y55F
VL: B1 VL with V29A, R31Q, A34K

Target: ACVR2A on HEK293T-B1 cells (ACVR2B knockout stable cell line) (UniProt P27037 20-513)
Sequence (P27037 20-513): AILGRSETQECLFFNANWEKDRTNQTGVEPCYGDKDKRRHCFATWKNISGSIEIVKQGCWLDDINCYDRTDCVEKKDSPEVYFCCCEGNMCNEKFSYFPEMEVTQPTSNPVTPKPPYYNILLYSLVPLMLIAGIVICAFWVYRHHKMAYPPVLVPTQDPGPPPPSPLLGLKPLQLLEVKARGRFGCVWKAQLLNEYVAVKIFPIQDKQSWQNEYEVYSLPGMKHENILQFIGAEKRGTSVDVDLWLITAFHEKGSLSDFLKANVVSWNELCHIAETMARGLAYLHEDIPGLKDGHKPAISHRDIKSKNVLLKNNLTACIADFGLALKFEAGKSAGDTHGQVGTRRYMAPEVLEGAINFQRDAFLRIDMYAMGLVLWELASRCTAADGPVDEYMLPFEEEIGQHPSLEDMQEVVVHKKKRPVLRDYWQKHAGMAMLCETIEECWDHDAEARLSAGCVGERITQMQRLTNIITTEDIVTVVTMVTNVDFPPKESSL
Test: cell-based or functional assay

IC50 (M), HEK293T-B1 CAGA-Luc, Activin A [M] | IC50 (M), HEK293T-B1 CAGA-Luc, GDF8 [M] | Binder
5.12e-09 | 2.06e-09 | B1
3.28e-09 | 2.42e-10 | B2
2.66e-09 | 4.99e-10 | B3
6.24e-09 | 1.6e-09 | B4
3.64e-09 | 1.65e-09 | B5
1.93e-09 | 2.16e-09 | B6
2.28e-09 | 3.51e-10 | B7
1.78e-09 | 6.51e-10 | B8
4.91e-09 | 8.81e-10 | B9
9.07e-09 | 1.64e-09 | B10

Target: T1, recombinant protein comprising the human ACVR2A extracellular domain (ECD) fused to the human IgG1 Fc region (human, UniProt P27037 20-135)
T1 construct: extracellular domain; also called ACVR2A-Fc; ACVR2A-FC; not shown: human IgG1 Fc region
T1 sequence (P27037 20-135): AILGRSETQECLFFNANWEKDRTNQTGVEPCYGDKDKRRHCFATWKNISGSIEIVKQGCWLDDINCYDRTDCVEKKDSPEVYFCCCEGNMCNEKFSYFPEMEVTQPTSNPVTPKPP
Test: SPR, Biacore; format and antigen construct not given

Kd [nM] | koff [s⁻¹] | kon [M⁻¹ s⁻¹] | Binder
0.638 | 0.000118 | 185000 | B2
0.663 | 0.000238 | 359000 | B3
0.172 | 5.44e-05 | 316000 | B4
0.153 | 7.91e-06 | 51600 | B5
0.865 | 0.000135 | 156000 | B6
0.584 | 9.41e-05 | 161000 | B7
0.211 | 8.07e-05 | 382000 | B8
0.872 | 0.000319 | 366000 | B9
0.43 | 4.51e-05 | 105000 | B10

Target: T1, recombinant protein comprising the …
Test: SPR, Biacore 3000 (1st test); ACVR2A-Fc captured by anti-human Fc, Fab injected
Text: (§1) 2.2 Surface Plasmon resonance (SPR) measurements and affinity analysis by anti-human Fc capture format. After affinity panning, output-3 (03) of CDRH1 library were screened for binding ability by Fab ELISA and followed by NGS DNA sequencing. Based on binding Elisa and sequence abundance from NGS data, 11 clones were select for SPR analysis. Approximately 100-800 resonance units (RU) of antigen ACVR2A, was captured by anti-human Fc immobilized on a channel of a CM5 chip with an activated amine group. After immobilization, Fab antibodies were injected into the channels at 25° C. in HBS-EP buffer, with a flow rate of 30 μL/min, 1 min. When the data collection was finished in each cycle, the sensor surface was regenerated using 80 mM NaOH with a flow rate of 30 μL/min, 15 sec and reused chip in next cycle. After subtraction of reference surface and buffer injection, curve was locally fitted with BIA evaluation version 4.1 using a 1:1 Langmuir binding mode.
(§2) The affinity of selected 11 anti-ACVR2A monoclonal antibody clones were determined on Biacore®3000 and Biacore®8000 as shown in Table 4 below.

Kd [nM] | koff [s⁻¹] | kon [M⁻¹ s⁻¹] | Binder
11.8 | 0.000288 | 24400 | B11
12.8 | 0.00232 | 181000 | B12
0.664 | 0.00019 | 285000 | B13
0.489 | 0.000256 | 523000 | B14
6.81 | 0.0022 | 323000 | B15
1.14 | 4.16e-05 | 36500 | B16
2.25 | 0.000698 | 311000 | B17
0.612 | 0.000152 | 248000 | B18
1.84 | 0.000468 | 254000 | B19

Target: T1, recombinant protein comprising the …
Test: SPR, Biacore 8000 (2nd test); ACVR2A-Fc captured by anti-human Fc, Fab injected
Text: as §1, §2

Kd [nM] | koff [s⁻¹] | kon [M⁻¹ s⁻¹] | Binder
1.47 | 0.000331 | 225000 | B11
10.4 | 0.00285 | 273000 | B12
0.501 | 0.000153 | 307000 | B13
0.212 | 0.000259 | 1.22e+06 | B14
5.91 | 0.00253 | 428000 | B15
3.08 | 0.000247 | 90300 | B16
1.38 | 0.000901 | 651000 | B17
0.443 | 0.000282 | 637000 | B18
1.01 | 0.000379 | 374000 | B19

Target: T2, ACVR2A mouse Fc fusion protein (mouse, UniProt P27037 20-135 (human entry), limits assumed)
T2 construct: not shown: mouse Fc
T2 sequence (P27037 20-135 limits assumed): as the sequence (P27037 20-135) above
Test: Activin A competitive ELISA; ACVR2A mouse Fc coated, antibody titrated, competitor activin A
Description: (§3) 2.3 Activin A Competitive ELISA. To select ACVR2A hits that could block the interaction between ACVR2A and its ligand Activin A, a competitive ELISA assay was set up. 30 μL 4.17 nM ACVR2A mouse Fc fusion protein was coated in 384-well HB plate at 4° C. overnight following blocking with 5% BSA. Anti-ACVR2A Fab fragment or antibodies with different concentrations were added to the plate and incubated on an orbital shaker at room temperature for 1 hours to allow binding of the antibodies. […] After 5 times washing with TBST, 30 μl of 20 nM goat anti-activin A polyclonal antibody (Abcam, ab7153) in blocking buffer was added into plate and incubated at room temperature for 1 hour. Last, 30 μl of anti-goat IgG-HRP (Beyotime, A0181) in blocking buffer (1:500 dilution) was added to plate for another 30 min incubation following washing step. Luminescence signal was collected on Tecan infinite M1000 after adding 30 μl ECL substrate.

IC50 [nM] | Binder
5.04 | B1
1.86 | B2
5.3 | B3
4.83 | B4
4.15 | B5
1.95 | B6
2.07 | B7
5.13 | B8
6.04 | B9
4.74 | B10

Target: T2, ACVR2A mouse Fc fusion protein
Test: Activin A competitive ELISA: ACVR2A mouse Fc fusion coated, IgG titrated, then 16.7 nM Activin A added; bound Activin A detected (luminescence)
Description: as §3

IC50 (read off the curve) [nM] | Binder
~9 | B20
